Results on three substances are retold here after US20220049236A1.

What is called pEC50 is the EC50 on a negative log10 scale, so that one unit is a factor of ten.

Assay [1] addresses Heat shock 70 kDa protein 6/7 (human) (UniProt P17066). The experiment in a line: IP from HDF supernatant, LFQ mass spectrometry; ratio against Fc control.
Assay [2] has as its target Nidogen-1 (human) (UniProt P14543). The assay is described as above.
Assay [3] concerns the target HSP70 (UniProt P0DMV8). The experiment in a line: ELISA, plate coated with HSP70, bound protein detected with peroxidase-conjugated anti-human antibody. On the technique in general: ELISA stands for enzyme-linked immunosorbent assay.
For assay [4], the target named is Heat shock 70 kDa protein 6/7 (human) (UniProt P17066). The assay can be described thus: IP from HDF supernatant, LFQ mass spectrometry; ratio against the glycosylation mutant.
Heat shock 70 kDa protein 6/7 (human), sequence (P17066 whole entry): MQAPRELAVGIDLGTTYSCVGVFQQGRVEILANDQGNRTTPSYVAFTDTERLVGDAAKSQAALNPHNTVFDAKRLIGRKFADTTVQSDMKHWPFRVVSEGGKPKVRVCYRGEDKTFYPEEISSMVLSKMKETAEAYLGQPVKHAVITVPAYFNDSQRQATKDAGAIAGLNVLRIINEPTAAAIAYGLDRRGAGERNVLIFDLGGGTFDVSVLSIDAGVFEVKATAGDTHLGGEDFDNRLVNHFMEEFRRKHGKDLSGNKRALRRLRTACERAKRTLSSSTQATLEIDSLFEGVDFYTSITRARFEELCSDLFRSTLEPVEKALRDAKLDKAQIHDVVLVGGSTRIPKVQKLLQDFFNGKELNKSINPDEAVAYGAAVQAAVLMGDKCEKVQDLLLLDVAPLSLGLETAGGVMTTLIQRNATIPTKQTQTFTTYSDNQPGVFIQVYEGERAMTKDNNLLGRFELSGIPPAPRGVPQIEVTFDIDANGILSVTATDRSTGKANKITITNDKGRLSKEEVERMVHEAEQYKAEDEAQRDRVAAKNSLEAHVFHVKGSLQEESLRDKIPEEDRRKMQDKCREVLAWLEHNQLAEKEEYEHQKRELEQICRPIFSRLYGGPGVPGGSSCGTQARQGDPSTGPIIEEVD
Assay [5] deals with Nidogen-1 (human) (UniProt P14543). Described as above.
Nidogen-1 (human), sequence (P14543 29-1247 limits assumed): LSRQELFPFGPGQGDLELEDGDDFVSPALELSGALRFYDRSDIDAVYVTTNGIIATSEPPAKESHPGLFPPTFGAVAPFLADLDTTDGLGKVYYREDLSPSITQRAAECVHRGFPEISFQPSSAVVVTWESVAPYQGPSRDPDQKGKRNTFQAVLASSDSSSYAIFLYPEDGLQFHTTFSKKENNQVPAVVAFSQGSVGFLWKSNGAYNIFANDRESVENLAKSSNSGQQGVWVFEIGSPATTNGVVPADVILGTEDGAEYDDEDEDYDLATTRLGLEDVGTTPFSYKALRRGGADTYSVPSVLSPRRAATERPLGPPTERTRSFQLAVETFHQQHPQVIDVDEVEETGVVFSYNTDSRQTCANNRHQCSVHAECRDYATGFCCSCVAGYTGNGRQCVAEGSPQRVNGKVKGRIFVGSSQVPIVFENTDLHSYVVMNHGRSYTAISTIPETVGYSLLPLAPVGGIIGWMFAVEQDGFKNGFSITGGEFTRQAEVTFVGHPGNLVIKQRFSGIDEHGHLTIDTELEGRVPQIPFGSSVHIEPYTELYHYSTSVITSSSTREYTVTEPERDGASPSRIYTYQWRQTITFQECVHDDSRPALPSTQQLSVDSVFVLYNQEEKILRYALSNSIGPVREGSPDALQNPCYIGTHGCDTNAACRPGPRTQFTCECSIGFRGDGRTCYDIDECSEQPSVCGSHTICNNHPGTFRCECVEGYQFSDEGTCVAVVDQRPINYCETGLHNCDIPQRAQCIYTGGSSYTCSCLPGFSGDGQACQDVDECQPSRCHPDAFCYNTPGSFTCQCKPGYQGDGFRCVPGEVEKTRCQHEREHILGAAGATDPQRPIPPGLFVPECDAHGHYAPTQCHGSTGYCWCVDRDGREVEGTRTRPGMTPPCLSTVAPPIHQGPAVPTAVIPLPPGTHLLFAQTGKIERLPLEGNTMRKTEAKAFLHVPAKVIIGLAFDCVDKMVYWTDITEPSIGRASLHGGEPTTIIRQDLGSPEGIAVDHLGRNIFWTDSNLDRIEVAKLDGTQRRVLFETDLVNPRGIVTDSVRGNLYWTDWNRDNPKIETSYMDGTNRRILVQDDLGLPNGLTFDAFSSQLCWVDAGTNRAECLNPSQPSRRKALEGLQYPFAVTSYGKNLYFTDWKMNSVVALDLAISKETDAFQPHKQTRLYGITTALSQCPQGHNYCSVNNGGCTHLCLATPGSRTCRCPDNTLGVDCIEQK
The target in assay [6] is HSP70 (UniProt P0DMV8). The assay can be described thus: ELISA, plate coated with HSP70.
HSP70, sequence (P0DMV8 whole entry): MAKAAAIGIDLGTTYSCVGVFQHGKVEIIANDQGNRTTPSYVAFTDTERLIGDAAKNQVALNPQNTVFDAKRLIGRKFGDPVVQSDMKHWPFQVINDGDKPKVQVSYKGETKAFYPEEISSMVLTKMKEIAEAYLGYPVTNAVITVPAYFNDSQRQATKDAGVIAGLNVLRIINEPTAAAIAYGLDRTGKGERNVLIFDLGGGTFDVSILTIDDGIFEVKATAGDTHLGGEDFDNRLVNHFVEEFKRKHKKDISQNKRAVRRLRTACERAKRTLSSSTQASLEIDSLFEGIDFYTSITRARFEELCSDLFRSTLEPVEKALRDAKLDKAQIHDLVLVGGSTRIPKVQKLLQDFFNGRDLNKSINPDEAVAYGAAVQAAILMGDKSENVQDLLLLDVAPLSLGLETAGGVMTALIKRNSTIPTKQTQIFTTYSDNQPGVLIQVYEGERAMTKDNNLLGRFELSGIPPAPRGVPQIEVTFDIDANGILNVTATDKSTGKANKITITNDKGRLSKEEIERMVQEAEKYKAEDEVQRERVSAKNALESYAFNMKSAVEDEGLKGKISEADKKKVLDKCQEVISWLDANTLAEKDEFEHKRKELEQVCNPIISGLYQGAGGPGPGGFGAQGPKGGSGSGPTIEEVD
Assay [7] addresses LPD displayed on the surface of yeast cells (EBY100) (Saccharomyces cerevisiae; human) (UniProt P32781). The experiment in a line: flow cytometry of yeast cells displaying LPD, stained with Atto 633-labelled HSP70; the sample histogram is shifted to the right of the control histogram, whose Median RFU is printed as 26. In general terms: A flow cytometer gives signals particle by particle.

pEC50: −log10 of the molar value.

Turning to “Fc-LPD (lysyl oxidase prodomain fused to Fc antibody fragment) (Fc fusion)”, the results for the Ratio Fc-LPD:Fc in assay [1] and in assay [2] were 78.4 and 9, respectively. Moreover, the pEC50 in assay [3] and in assay [6] was 7.39 each time. The results for the Ratio Fc-LPD:Fc-LPDN346, 409, 456Q in assay [4] and in assay [5] were 0.4 and 0.7, respectively.
Take “Fc-LPD N346, 362, 409Q (from UniProt P28300 22-169) (Fc fusion)”: the values for the Ratio Fc-LPD-N346, 409, 456Q:Fc in assay [1] and in assay [2] were 194 and 13.7, respectively.
Take HSP70 (from UniProt P0DMV8 1-641): the Median RFU in assay [7] came out at 130 RFU.
